Measured values from US20070248617A1 (published 2007).

Target: T1, recombinant human RANK-hFc fusion protein (human, UniProt Q9Y6Q6 30-212, limits assumed)
T1 construct: also called hRANK; not shown: human Fc (hFc)
T1 sequence (looked up): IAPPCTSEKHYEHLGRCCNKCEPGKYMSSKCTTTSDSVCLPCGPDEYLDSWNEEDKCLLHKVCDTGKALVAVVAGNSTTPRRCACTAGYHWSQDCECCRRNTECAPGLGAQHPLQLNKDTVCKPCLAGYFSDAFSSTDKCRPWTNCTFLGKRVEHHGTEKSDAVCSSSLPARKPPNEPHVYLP
Assay: ELISA, human RANKL coated at 10 µg/ml, serial dilutions of human RANK-hFc, anti-hFc-HRP detection
Method: To test whether the antibodies generated in mice have neutralizing activity, in vitro binding assays for both mouse and human RANKL and their cognate receptors mouse RANK and human RANK were established. ELISA plates were therefore coated with 10 μg/ml of either mouse or human RANKL protein and incubated with serial dilutions of a recombinant mouse RANK-hFc fusion protein or a recombinant human RANK-hFc fusion protein, respectively. Bound protein was detected with a horse raddish peroxidase conjugated anti-hFc antibody. […] Sera of mice immunized with mRANKL(155-174) coupled to Qβcapsid were then tested for their ability to inhibit the binding of mouse and human RANKL protein to their respective receptors. ELISA plates were therefore coated with either mouse or human RANKL protein at a concentration of 10 μg/ml, and co-incubated with serial dilutions of a pool of mouse sera from day 35 and 0.35 nM mouse or human RANK-hFc fusion protein, respectively. Binding of receptor to immobilized RANKL protein was detected with horse raddish peroxidase conjugated anti-hFc antibody.

B1: human RANKL protein (ligand, UniProt O14788 140-317, looked up)
chain: IRAEKAMVDGSWLDLAKRSKLEAQPFAHLTINATDIPSGSHKVSLSSWYHDRGWAKISNMTFSNGKLIVNQDGFYYLYANICFRHHETSGDLATEYLQLMVYVTKTSIKIPSSHTLMKGGSTKYWSGNSEFHFYSINVGGFFKLRSGEEISIEVSNPSLLDPDQDATYFGAFKVRDID
notes: also called hRANKL
binding result: binds
